According to PMC6005420, “A low-complexity region in the YTH domain protein Mmi1 enhances RNA binding”:

How the values were obtained:
[1] = test system: Mmi1 YTH-ΔN (Schizosaccharomyces pombe); experiment: SwitchSENSE; details: 40 mM NaCl; RNA-DNA chimera: 15-mer DSRshort followed by 42 deoxyribonucleotides; FP: 10 mM TAPS pH 8.2, 2 mM PIPES, 50 or 150 mM NaCl, 0.5 mM MgAc, 0.1 mM TCEP, 0.01% Brij-35, room temperature, 0.1 nM RNA; EMSA: 20 mM HEPES pH 7.5, 100 mM …
[2] = target: T1, Mmi1 USR-YTH (Schizosaccharomyces pombe, UniProt O74958 282-488); experiment: SwitchSENSE; details: 40 mM NaCl; RNA-DNA chimera: 15-mer DSRshort followed by 42 deoxyribonucleotides; FP: 10 mM TAPS pH 8.2, 2 mM PIPES, 50 or 150 mM NaCl, 0.5 mM MgAc, 0.1 mM TCEP, 0.01% Brij-35, room temperature, 0.1 nM RNA; EMSA: 20 mM HEPES pH 7.5, 100 mM …
T1 sequence: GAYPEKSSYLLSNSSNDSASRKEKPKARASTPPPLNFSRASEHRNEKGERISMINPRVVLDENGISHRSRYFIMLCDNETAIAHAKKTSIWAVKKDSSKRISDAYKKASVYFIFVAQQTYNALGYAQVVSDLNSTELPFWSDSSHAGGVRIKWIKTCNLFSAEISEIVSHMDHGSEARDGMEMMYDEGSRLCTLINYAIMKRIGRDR

[3] = target: T2, Mmi1 YTH (Schizosaccharomyces pombe, UniProt O74958 327-488); experiment: SwitchSENSE; details: 40 mM NaCl; RNA-DNA chimera: 15-mer DSRshort followed by 42 deoxyribonucleotides; FP: 10 mM TAPS pH 8.2, 2 mM PIPES, 50 or 150 mM NaCl, 0.5 mM MgAc, 0.1 mM TCEP, 0.01% Brij-35, room temperature, 0.1 nM RNA; EMSA: 20 mM HEPES pH 7.5, 100 mM …
T2 sequence: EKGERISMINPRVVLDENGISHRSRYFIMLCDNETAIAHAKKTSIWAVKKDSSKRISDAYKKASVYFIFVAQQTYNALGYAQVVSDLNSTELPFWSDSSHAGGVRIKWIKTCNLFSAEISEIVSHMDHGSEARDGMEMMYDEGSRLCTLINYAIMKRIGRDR

[4] = test system: Mmi1 YTH-ΔC (Schizosaccharomyces pombe); experiment: SwitchSENSE; details: 40 mM NaCl; RNA-DNA chimera: 15-mer DSRshort followed by 42 deoxyribonucleotides; FP: 10 mM TAPS pH 8.2, 2 mM PIPES, 50 or 150 mM NaCl, 0.5 mM MgAc, 0.1 mM TCEP, 0.01% Brij-35, room temperature, 0.1 nM RNA; EMSA: 20 mM HEPES pH 7.5, 100 mM …
[5] = test system: Mmi1 YTH-ΔNΔC (Schizosaccharomyces pombe); experiment: SwitchSENSE; details: 40 mM NaCl; RNA-DNA chimera: 15-mer DSRshort followed by 42 deoxyribonucleotides; FP: 10 mM TAPS pH 8.2, 2 mM PIPES, 50 or 150 mM NaCl, 0.5 mM MgAc, 0.1 mM TCEP, 0.01% Brij-35, room temperature, 0.1 nM RNA; EMSA: 20 mM HEPES pH 7.5, 100 mM …
[6] = target: T1, Mmi1 USR-YTH; experiment: fluorescence polarization; 150 mM NaCl; FP: 10 mM TAPS pH 8.2, 2 mM PIPES, 50 or 150 mM NaCl, 0.5 mM MgAc, 0.1 mM TCEP, 0.01% Brij-35, room temperature, 0.1 nM RNA; EMSA: 20 mM HEPES pH 7.5, 100 mM NaCl (plus 30 mM from protein buffer), 1 mM MgAc, 0.1 mM TCEP, 5% glycerol, 50 nM RNA, 15 min; SwitchSENSE: 40 mM NaCl; details: protein: recombinant; tags: N-terminal His6, 3C-cleaved; label: 3'-6-carboxyfluorescein
[7] = target: T2, Mmi1 YTH; experiment: as above; details: protein: recombinant; tags: N-terminal His6, 3C-cleaved; label: 3'-6-carboxyfluorescein
[8] = target: T1, Mmi1 USR-YTH; experiment: fluorescence polarization; 50 mM NaCl; FP: 10 mM TAPS pH 8.2, 2 mM PIPES, 50 or 150 mM NaCl, 0.5 mM MgAc, 0.1 mM TCEP, 0.01% Brij-35, room temperature, 0.1 nM RNA; EMSA: 20 mM HEPES pH 7.5, 100 mM NaCl (plus 30 mM from protein buffer), 1 mM MgAc, 0.1 mM TCEP, 5% glycerol, 50 nM RNA, 15 min; SwitchSENSE: 40 mM NaCl; details: protein: recombinant; tags: N-terminal His6, 3C-cleaved; label: 3'-6-carboxyfluorescein
[9] = target: T2, Mmi1 YTH; experiment: as above; details: protein: recombinant; tags: N-terminal His6, 3C-cleaved; label: 3'-6-carboxyfluorescein
[10] = target: T1, Mmi1 USR-YTH; experiment: EMSA; FP: 10 mM TAPS pH 8.2, 2 mM PIPES, 50 or 150 mM NaCl, 0.5 mM MgAc, 0.1 mM TCEP, 0.01% Brij-35, room temperature, 0.1 nM RNA; EMSA: 20 mM HEPES pH 7.5, 100 mM NaCl (plus 30 mM from protein buffer), 1 mM MgAc, 0.1 mM TCEP, 5% glycerol, 50 nM RNA, 15 min; SwitchSENSE: 40 mM NaCl; details: protein: recombinant; tags: N-terminal His6, 3C-cleaved; label: 3'-fluorescein
[11] = target: T1, Mmi1 USR-YTH; experiment: NMR; FP: 10 mM TAPS pH 8.2, 2 mM PIPES, 50 or 150 mM NaCl, 0.5 mM MgAc, 0.1 mM TCEP, 0.01% Brij-35, room temperature, 0.1 nM RNA; EMSA: 20 mM HEPES pH 7.5, 100 mM NaCl (plus 30 mM from protein buffer), 1 mM MgAc, 0.1 mM TCEP, 5% glycerol, 50 nM RNA, 15 min; SwitchSENSE: 40 mM NaCl; details: protein: recombinant; tags: N-terminal His6, 3C-cleaved
[12] = target: T3, Mmi1(301-488) (Schizosaccharomyces pombe, UniProt O74958 301-488); experiment: X-ray crystallography; FP: 10 mM TAPS pH 8.2, 2 mM PIPES, 50 or 150 mM NaCl, 0.5 mM MgAc, 0.1 mM TCEP, 0.01% Brij-35, room temperature, 0.1 nM RNA; EMSA: 20 mM HEPES pH 7.5, 100 mM NaCl (plus 30 mM from protein buffer), 1 mM MgAc, 0.1 mM TCEP, 5% glycerol, 50 nM RNA, 15 min; SwitchSENSE: 40 mM NaCl; details: protein: recombinant; tags: N-terminal His6, 3C-cleaved
T3 sequence: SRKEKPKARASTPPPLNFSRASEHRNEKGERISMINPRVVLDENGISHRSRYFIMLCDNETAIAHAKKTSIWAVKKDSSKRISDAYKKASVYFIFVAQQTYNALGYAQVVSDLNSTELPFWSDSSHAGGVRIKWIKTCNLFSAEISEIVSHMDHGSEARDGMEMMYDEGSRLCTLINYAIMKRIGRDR

Question: What does the source list for DSRshort-DNA chimera for SwitchSENSE?
Answer: Kd [1]: 15000 nM; Kd [2]: 0.09 nM; Kd [3]: 16 nM; Kd [4]: 160 nM; Kd [5]: 51000 nM

B1: DSRshort (15-mer) (ssRNA)
RNA: UCUUAAACCAGUCAC
Question: With B1 as the molecule, how does the Kd [6] read?
Answer: 6.1 ± 0.7 nM

Question: What about the Kd [7] of the same molecule?
Answer: 154 ± 85 nM

Question: What about the Kd [8] of the same molecule?
Answer: 0.14 ± 0.01 nM

Question: And the Kd [9]?
Answer: 42 ± 18 nM

B2: rec8DSR (ssRNA)
RNA: GUGUCUCUUUAAACCUAAAAAGCAC
Question: Does B2 bind [10]?
Answer: binds

B3: 7-mer DSR RNA (ssRNA)
RNA: UUAAACC
Question: Which results are given for B3?
Answer: binding result [11]: binds; binding result [12]: binds

B4: 11-mer DSR RNA (ssRNA)
RNA: CUUUAAACCUA
Question: Does B4 bind [12]?
Answer: binds
